In general, Kd refers to the free concentration of one partner at which half of the binding sites on the other are occupied at equilibrium, for simple one-to-one binding. A high value points to weaker binding.

Here are results for four molecules from article PMC7970798 (Computational and Structural Biotechnology Journal, 2021).

Numbering of substitutions follows the chain as printed. Like-named read-outs stand apart in the source and are kept apart here. No end group written: not given here. *: point of attachment. Biotin = O=C1N[C@H]2[C@H](CS[C@H]2CCCCC(=O)*)N1 A value given as a limit tells only on which side of the number the result lay.

Sequences and labels used below:
T1: PDZ domain of wild type human PALS1 protein (human, UniProt Q8N3R9 256-336)
T1 sequence: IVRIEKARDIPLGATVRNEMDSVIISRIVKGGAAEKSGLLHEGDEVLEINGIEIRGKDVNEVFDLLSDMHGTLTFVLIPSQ

B1: CRB1 C-terminal tetradecapeptide (endogenous PALS1 ligand) (peptide)
peptide: Biotin-MWNLMPPPAMERLI
B2: SARS-CoV-2 envelope E protein C-terminal tetradecapeptide (peptide)
peptide: Biotin-VKNLNSSRVPDLLV
B3: [change] variant of the PDZ domain of PALS1 (domain or fragment)
chain: T1 sequence with F63W
B4: SARS-CoV-1 envelope E protein C-terminal tetradecapeptide (peptide)
peptide: KNLNSSEGVPDLLV

What all share (assay): SPR
The target in assay [1] is T1, PDZ domain of wild type human PALS1 ….
Assay [2] has the same target. The source holds these as a separate data set.
Assay [3] concerns the target B1.

Molecule B1 registered a dissociation constant Kd in assay [1] of 5.11 µM.

B2 had a Kd in assay [2] of 63 µM.

In turn, B3 registered a dissociation constant Kd in assay [3] of 18 µM.

As to B4, the dissociation constant (Kd) in assay [2] was more than 500 µM.
